The results in this text go back to US20200199241A1 (Chugai, published 2020).

First the molecules themselves.
B1: IgG1-F264 (antibody)
heavy: QVQLQESGPGLVKPSETLSLTCAVSGHSISHDHAWSWVRQPPGEGLEWIGFISYSGITNYNPSLQGRVTISRDNSKNTLYLQMNSLRAEDTAVYYCARSLARTTAMDYWGEGTLVTVSSASTKGPSVFPLAPSSKSTSGGTAALGCLVKDYFPEPVTVSWNSGALTSGVHTFPAVLQSSGLYSLSSVVTVPSSSLGTQTYICNVNHKPSNTKVDKKVEPKSCDKTHTCPPCPAPELLGGPSVFLFPPKPKDTLYISRTPEVTCVVVDVSHEDPEVKFNWYVDGVEVHNAKTKPREEQYNSTYRVVSVLTVLHQDWLNGKEYKCKVSNKALPAPIEKTISKAKGQPREPQVYTLPPSRDELTKNQVSLTCLVKGFYPSDIAVEWASNGQPENNYKTTPPVLDSDGSFFLYSKLTVDKSRWQQGNVFSCSVMHEALHYHYTQKSLSLSP
light: not shown
notes: EU numbering; copies: 2 + 2
B2: IgG1-F270 (antibody)
heavy: QVQLQESGPGLVKPSETLSLTCAVSGHSISHDHAWSWVRQPPGEGLEWIGFISYSGITNYNPSLQGRVTISRDNSKNTLYLQMNSLRAEDTAVYYCARSLARTTAMDYWGEGTLVTVSSASTKGPSVFPLAPSSKSTSGGTAALGCLVKDYFPEPVTVSWNSGALTSGVHTFPAVLQSSGLYSLSSVVTVPSSSLGTQTYICNVNHKPSNTKVDKKVEPKSCDKTHTCPPCPAPELLGGPSVFLFPPKPKDTLYISRTPEVTCVVVDVSHEDPEVKFNWYVDGVEVHNAKTKPREEQYNSTYRVVSVLTVLHQDWLNGKEYKCKVSGKALPAPIEKTISKAKGQPREPQVYTLPPSRDELTKNQVSLTCLVKGFYPSDIAVEWESNGQPENNYKTTPPVLDSDGSFFLYSKLTVDKSRWQQGNVFSCSVFHEALHYHYTQKSLSLSP
light: not shown
notes: EU numbering; copies: 2 + 2
B3: IgG1-F266 (antibody)
heavy: QVQLQESGPGLVKPSETLSLTCAVSGHSISHDHAWSWVRQPPGEGLEWIGFISYSGITNYNPSLQGRVTISRDNSKNTLYLQMNSLRAEDTAVYYCARSLARTTAMDYWGEGTLVTVSSASTKGPSVFPLAPSSKSTSGGTAALGCLVKDYFPEPVTVSWNSGALTSGVHTFPAVLQSSGLYSLSSVVTVPSSSLGTQTYICNVNHKPSNTKVDKKVEPKSCDKTHTCPPCPAPELLGGPSVFLFPPKPKDTLYISRTPEVTCVVVDVSHEDPEVKFNWYVDGVEVHNAKTKPREEQYNSTYRVVSVLAVLHQDWLNGKEYKCKVSNKALPAPIEKTISKAKGQPREPQVYTLPPSRDELTKNQVSLTCLVKGFYPSDIAVEWASNGQPENNYKTTPPVLDSDGSFFLYSKLTVDKSRWQQGNVFSCSVYHEALHYHYTQKSLSLSP
light: not shown
notes: EU numbering; copies: 2 + 2
B4: IgG1-F272 (antibody)
heavy: QVQLQESGPGLVKPSETLSLTCAVSGHSISHDHAWSWVRQPPGEGLEWIGFISYSGITNYNPSLQGRVTISRDNSKNTLYLQMNSLRAEDTAVYYCARSLARTTAMDYWGEGTLVTVSSASTKGPSVFPLAPSSKSTSGGTAALGCLVKDYFPEPVTVSWNSGALTSGVHTFPAVLQSSGLYSLSSVVTVPSSSLGTQTYICNVNHKPSNTKVDKKVEPKSCDKTHTCPPCPAPELLGGPSVFLFPPKPKDTLYISRTPEVTCVVVDVSHEDPEVKFNWYVDGVEVHNAKTKPREEQYNSTYRVVSVLTVLHQDWLNGKEYKCKVSNKALPAPIEKTISKAKGQPREPQVYTLPPSRDELTKNQVSLTCLVKGFYPSDIAVAWESNGQPENNYKTTPPVLDSDGSFFLYSKLTVDKSRWQQGNVFSCSVFHEALHYHYTQKSLSLSP
light: not shown
notes: EU numbering; copies: 2 + 2
B5: IgG1-F265 (antibody)
heavy: QVQLQESGPGLVKPSETLSLTCAVSGHSISHDHAWSWVRQPPGEGLEWIGFISYSGITNYNPSLQGRVTISRDNSKNTLYLQMNSLRAEDTAVYYCARSLARTTAMDYWGEGTLVTVSSASTKGPSVFPLAPSSKSTSGGTAALGCLVKDYFPEPVTVSWNSGALTSGVHTFPAVLQSSGLYSLSSVVTVPSSSLGTQTYICNVNHKPSNTKVDKKVEPKSCDKTHTCPPCPAPELLGGPSVFLFPPKPKDTLYISRTPEVTCVVVDVSHEDPEVKFNWYVDGVEVHNAKTKPREEQYNSTYRVVSVLTVLHQDWLNGKEYKCKVSNKALPAPIEKTISKAKGQPREPQVYTLPPSRDELTKNQVSLTCLVKGFYPSDIAVEWASNGQPENNYKTTPPVLDSDGSFFLYSKLTVDKSRWQQGNVFSCSVYHEALHYHYTQKSLSLSP
light: not shown
notes: EU numbering; copies: 2 + 2
B6: IgG1-F274 (antibody)
heavy: QVQLQESGPGLVKPSETLSLTCAVSGHSISHDHAWSWVRQPPGEGLEWIGFISYSGITNYNPSLQGRVTISRDNSKNTLYLQMNSLRAEDTAVYYCARSLARTTAMDYWGEGTLVTVSSASTKGPSVFPLAPSSKSTSGGTAALGCLVKDYFPEPVTVSWNSGALTSGVHTFPAVLQSSGLYSLSSVVTVPSSSLGTQTYICNVNHKPSNTKVDKKVEPKSCDKTHTCPPCPAPELLGGPSVFLFPPKPKDTLYISRTPEVTCVVVDVSHEDPEVKFNWYVDGVEVHNAKTKPREEQYNSTYRVVSVLTVLHQDWLNGKEYKCKVSNKALPAPIEKTISKAKGQPREPQVYTLPPSRDELTKNQVSLTCLVKGFYPSDIAVAWASNGQPENNYKTTPPVLDSDGSFFLYSKLTVDKSRWQQGNVFSCSVFHEALHYHYTQKSLSLSP
light: not shown
notes: EU numbering; copies: 2 + 2
B7: IgG1-F267 (antibody)
heavy: QVQLQESGPGLVKPSETLSLTCAVSGHSISHDHAWSWVRQPPGEGLEWIGFISYSGITNYNPSLQGRVTISRDNSKNTLYLQMNSLRAEDTAVYYCARSLARTTAMDYWGEGTLVTVSSASTKGPSVFPLAPSSKSTSGGTAALGCLVKDYFPEPVTVSWNSGALTSGVHTFPAVLQSSGLYSLSSVVTVPSSSLGTQTYICNVNHKPSNTKVDKKVEPKSCDKTHTCPPCPAPELLGGPSVFLFPPKPKDTLYISRTPEVTCVVVDVSHEDPEVKFNWYVDGVEVHNAKTKPREEQYNSTYRVVSVLQVLHQDWLNGKEYKCKVSNKALPAPIEKTISKAKGQPREPQVYTLPPSRDELTKNQVSLTCLVKGFYPSDIAVEWASNGQPENNYKTTPPVLDSDGSFFLYSKLTVDKSRWQQGNVFSCSVYHEALHYHYTQKSLSLSP
light: not shown
notes: EU numbering; copies: 2 + 2
B8: IgG1-F269 (antibody)
heavy: QVQLQESGPGLVKPSETLSLTCAVSGHSISHDHAWSWVRQPPGEGLEWIGFISYSGITNYNPSLQGRVTISRDNSKNTLYLQMNSLRAEDTAVYYCARSLARTTAMDYWGEGTLVTVSSASTKGPSVFPLAPSSKSTSGGTAALGCLVKDYFPEPVTVSWNSGALTSGVHTFPAVLQSSGLYSLSSVVTVPSSSLGTQTYICNVNHKPSNTKVDKKVEPKSCDKTHTCPPCPAPELLGGPSVFLFPPKPKDTLYISRTPEVTCVVVDVSHEDPEVKFNWYVDGVEVHNAKTKPREEQYNSTYRVVSALTVLHQDWLNGKEYKCKVSNKALPAPIEKTISKAKGQPREPQVYTLPPSRDELTKNQVSLTCLVKGFYPSDIAVEWESNGQPENNYKTTPPVLDSDGSFFLYSKLTVDKSRWQQGNVFSCSVFHEALHYHYTQKSLSLSP
light: not shown
notes: EU numbering; copies: 2 + 2
B9: IgG1-F268 (antibody)
heavy: QVQLQESGPGLVKPSETLSLTCAVSGHSISHDHAWSWVRQPPGEGLEWIGFISYSGITNYNPSLQGRVTISRDNSKNTLYLQMNSLRAEDTAVYYCARSLARTTAMDYWGEGTLVTVSSASTKGPSVFPLAPSSKSTSGGTAALGCLVKDYFPEPVTVSWNSGALTSGVHTFPAVLQSSGLYSLSSVVTVPSSSLGTQTYICNVNHKPSNTKVDKKVEPKSCDKTHTCPPCPAPELLGGASVFLFPPKPKDTLYISRTPEVTCVVVDVSHEDPEVKFNWYVDGVEVHNAKTKPREEQYNSTYRVVSVLTVLHQDWLNGKEYKCKVSNKALPAPIEKTISKAKGQPREPQVYTLPPSRDELTKNQVSLTCLVKGFYPSDIAVEWESNGQPENNYKTTPPVLDSDGSFFLYSKLTVDKSRWQQGNVFSCSVFHEALHYHYTQKSLSLSP
light: not shown
notes: EU numbering; copies: 2 + 2

T1 sequence (chain, as listed by the source limits assumed, chain 1 of 2): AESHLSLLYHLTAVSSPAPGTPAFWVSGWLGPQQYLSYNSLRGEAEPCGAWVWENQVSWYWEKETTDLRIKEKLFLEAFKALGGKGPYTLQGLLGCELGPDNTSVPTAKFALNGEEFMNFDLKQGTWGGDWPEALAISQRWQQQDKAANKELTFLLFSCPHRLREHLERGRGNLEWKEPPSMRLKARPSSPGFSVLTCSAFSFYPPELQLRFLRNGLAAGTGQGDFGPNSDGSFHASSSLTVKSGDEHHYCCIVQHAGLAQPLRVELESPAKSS
T1 sequence (P61769 21-119 limits assumed, chain 2 of 2): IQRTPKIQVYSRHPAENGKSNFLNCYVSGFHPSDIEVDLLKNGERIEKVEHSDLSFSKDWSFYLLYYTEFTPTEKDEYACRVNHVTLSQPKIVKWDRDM

This assay has as its target T1, human FcRn (soluble human FcRn complexed with β2-microglobulin) (human, UniProt P61769 21-119, limits assumed).
T1 construct: also called hFcRn
The assay is described as follows: SPR, pH 7.0.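 Note: antibodies captured on a Protein L sensor chip with human FcRn injected as analyte, KD calculated from fitted association and dissociation rate constants.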 Background: In SPR one partner is held on a chip, and binding of the other changes the refractive index at the surface.
A word on the Kd: it is the free concentration of one partner at which half of the binding sites on the other are occupied at equilibrium, for simple one-to-one binding. Regarding B1, binding was characterised by a dissociation constant (Kd) of 280 nM. To B2 belongs 660 nM; to B3, 470 nM; to B4, 680 nM. As for B5, the figure is 680 nM; as for B6, 760 nM; as for B7, 320 nM.

B8: binding was put at a Kd of 520 nM.

The molecule B9 yielded a Kd of 630 nM.
